The values that follow come from PMC10214761.

The target of this assay is IgG1k from human myeloma plasma (IgG1 MC) (human). As to the kind of experiment: SPR.

In general, Kd refers to the equilibrium constant for the complex coming apart. A higher Kd goes with a looser complex. The substance “human Fcγ receptor IIa (hFcγRIIa) (from UniProt P12318 34-217)” came in with a Kd of 309 nM.
As to “human Fcγ receptor IIb/c (hFcγRIIb/c) (from UniProt P31994 43-217)”, the Kd worked out at 3360 nM.
